The subject of one experiment is P. aeruginosa. Kind of experiment: MIC, modified CLSI broth microdilution in CAA medium without or with […] human serum (Table 4). On CAA/HuS MIC: CAA supplemented with 2.5% human serum. The experiment is classed as cell-based, Pseudomonas aeruginosa. As to conditions: for CAA MIC: CAA medium, no human serum; for CAA/HuS MIC: CAA supplemented with […] human serum. An excerpt:
2015. […] Clinical and Laboratory Standards Institute, Wayne, Pa.

The test system of experiment [1] is Pseudomonas aeruginosa strain CFS-1292 (meropenem resistant). As to conditions: for MIC in 25% CAA: strain CFS-1292, no added cations; for Fold Increase (MIC) in presence of cations: CFS-1292. The procedure:
The activity of selected GN lysins and constructs in the presence of divalent cations was evaluated, and the impact of divalent cations at physiological concentrations was examined in the MIC assay format.

In experiment [2] the test system is P. aeruginosa strain WC-453. Description: Time-kill assay in HEPES or CAA with 25% human serum (Tables 7, 8). The class given is cell-based, Pseudomonas aeruginosa. As to conditions: for bactericidal activity (CFU decrease of 3-Log10, 3 hours after the addition of lysin): 10 μg/mL, enumerated lysins in CAA/HuS, general statement for HEPES and CAA/HuS; for CAA/HuS (Log10 CFU/mL), 1 hr / CAA/HuS (Log10 CFU/mL), 3 hr: CAA + 25% human serum, lysin 10 μg/ml, WC-453. The method, then: Exponential phase bacteria were then pelleted and resuspended in 1/5 culture volume of 25 mM HEPES, pH 7.4 before a final adjustment to an optical density corresponding to a McFarland value of 0.5. […] All treatments were incubated at 37° C. with aeration. At time points before the addition of lysin (or buffer control) and at 1 hour and 3 hours intervals thereafter, culture samples were removed for quantitative plating on CAA agar plates.

The test system of experiment [3] is biofilms formed by P. aeruginosa strain ATCC 17646. The conditions noted are these: strain ATCC 17646 biofilm. The method, then: Biofilms are then washed and treated with e.g., a 2-fold dilution series of the lysin in TSBg at e.g., 37° C. for 24 hours. After treatment, wells are washed, air-dried at e.g., 37° C. and stained with e.g., 0.05% crystal violet for 10 minutes.

Experiment [4] has as its system P. aeruginosa isolate CFS-1292. Kind of experiment: MIC in CAA supplemented with a range of […] concentrations (Table 10). The class given is cell-based, Pseudomonas aeruginosa.
The subject of experiment [5] is carbepenam-resistant clinical isolate WC-453. Description: MIC in CAA without or with 25% human serum (Table 5). The class given is cell-based, Pseudomonas aeruginosa. The method, then:
MIC values were determined using a modification of the standard broth microdilution reference method defined by the Clinical and Laboratory Standards Institute (CLSI), CLSI. […] Methods for Dilution Antimicrobial Susceptibility Tests for Bacteria That Grow Aerobically; Approved Standard-10th Edition. Clinical and Laboratory Standards Institute, Wayne, Pa.

Where two headings read alike, the source gives them in different places. Where only a bound is given, the exact number is not on record here.

B1: GN431: lysin obtained from Dickeya phage phiD3 (SEQ ID NO: 64) (protein)
chain: MAILKLGNRGTEVKALQDSLNKIGFTLVADGIFGKATENAVKTVQAGAGLVIDGIVGPKTSYAIRNAGEAHQDHLTEADLIEAANQLGVDLASVKAVNQVESRGTGFTKSGKIKTLFERHIMYKKLMAKFGQARANAMGQMYPTLVSPVAGGYTGGDAELDRLHAAINIDEDCAYESASYGLFQIMGFNCQVCGYANAKEMFNDFLTGERAHLMAFVKFIKADAKLWQALKDKNWAEFARRYNGPAYTKNQYDTKLAAAYNSFN
modifications: Dickeya phage phiD3
Regarding B1, in the experiment on P. aeruginosa, the “CAA MIC” value is 8000 µg/mL and the “CAA/HuS MIC” value worked out at 62.5 µg/mL. In experiment [1], the “MIC in 25% CAA” value is 2 µg/mL. In experiment [2], the “bactericidal activity (CFU decrease of 3-Log10, 3 hours after the addition of lysin)” value is recorded as “bactericidal activity”; the “CAA/HuS (Log10 CFU/mL), 1 hr” value is on record as 5.8 Log10 CFU/mL; the “CAA/HuS (Log10 CFU/mL), 3 hr” value is recorded as less than 3.7 Log10 CFU/mL. This molecule came in with an MBEC in experiment [3] of 1 µg/mL.

B2: GN156: GPRRPRRPGRRAPV introduced at the N terminus of GN4 (SEQ ID NO: 126) (protein)
chain: GPRRPRRPGRRAPVRTSQRGIDLIKSFEGLRLSAYQDSVGVWTIGYGTTRGVTRYMTITVEQAERMLSNDIQRFEPELDRLAKVPLNQNQWDALMSFVYNLGAANLASSTLLKLLNKGDYQGAADQFPRWVNAGGKRLDGLVKRRAAERALFLEPLS
For the molecule B2, the “Fold Increase (MIC) in presence of cations” value is reported as 1 fold in experiment [1] (25% CAA + […] CaCl2 (high)); 2 fold in experiment [1] (25% CAA + […] CaCl2 (low)); 2 fold in experiment [1] (25% CAA + […] CaCl2 (medium)); 2 fold in experiment [1] (25% CAA + […] CaCl2 and […] MgCl2); 2 fold in experiment [1] (25% CAA + […] MgCl2 (high)); 2 fold in experiment [1] (25% CAA + […] MgCl2 (low)). For the same molecule, the “Fold Increase (MIC) in presence of cations” value in experiment [1] (25% CAA + […] MgCl2 (medium)) is 2 fold. Further, in experiment [1], the “MIC in 25% CAA” value amounted to 2 µg/mL. Besides, the “fold increase in MIC with SURVANTA” value in experiment [4] (0.09% SURVANTA) worked out at 1 fold; in experiment [4] (0.19% SURVANTA), 1 fold; in experiment [4] (1.56% SURVANTA), 2 fold; in experiment [4] (3.15% SURVANTA), 2 fold.

B3: GN316: lysin obtained from Klebsiella phage 0507-KN2-1 (SEQ ID NO: 22) (protein)
chain: MAILKIGSKGLEVKNLQTSLNKIGFNLVADGIFGKATDNAVRAVQAGAGLVVDGIAGPKTMYAIRNAGESHQDHLTEADLIDAARELSVDLASIKAVNQVESRGTGFTKSGKIKTLFERHIMYKKLNAKFGQAKANALAQLYPTLVNAKAGGYTGGDAELERLHGAIAIDKDCAYESASYGLFQIMGFNCVICGYDNAEEMFNDFLTGERAQLMAFVKFIKADANLWKALKDKNWAEFARRYNGPAYAQNQYDTKLAAAYKSFS
modifications: (1)..(264) GN316 lysin
Regarding B3, in the experiment with P. aeruginosa, the “CAA MIC” value came to 16000 µg/mL and the “CAA/HuS MIC” value worked out at 125 µg/mL. In experiment [5], the “activity in CAA supplemented with human serum (25%)” value is given as “active”. In experiment [5] (CAA), the “CAA MIC” value came to 16. Also, the “CAA/HuS MIC” value in experiment [5] (CAA supplemented with 25% human serum) was less than 0.0625. In addition, in experiment [1], the “MIC in 25% CAA” value was determined as 4 µg/mL. In experiment [2], the “bactericidal activity (CFU decrease of 3-Log10, 3 hours after the addition of lysin)” value was “bactericidal activity”; the “CAA/HuS (Log10 CFU/mL), 1 hr” value turned out to be 5.1 Log10 CFU/mL; the “CAA/HuS (Log10 CFU/mL), 3 hr” value was less than 3.7 Log10 CFU/mL. The molecule further had an MBEC in experiment [3] of 1 µg/mL.

B4: GN357: lysin-AMP construct: TAGGTAGG linker and RR12Whydro C-terminal to GN316 lysin (SEQ ID NO: 38) (protein)
chain: MAILKIGSKGLEVKNLQTSLNKIGFNLVADGIFGKATDNAVRAVQAGAGLVVDGIAGPKTMYAIRNAGESHQDHLTEADLIDAARELSVDLASIKAVNQVESRGTGFTKSGKIKTLFERHIMYKKLNAKFGQAKANALAQLYPTLVNAKAGGYTGGDAELERLHGAIAIDKDCAYESASYGLFQIMGFNCVICGYDNAEEMFNDFLTGERAQLMAFVKFIKADANLWKALKDKNWAEFARRYNGPAYAQNQYDTKLAAAYKSFSTAGGTAGGRRLIRLWLRLLR
For B4, in the experiment on P. aeruginosa, the “CAA MIC” value was determined as 16000 µg/mL and the “CAA/HuS MIC” value came to 250 µg/mL. Also, the “MIC in 25% CAA” value in experiment [1] turned out to be 4 µg/mL. Further, in experiment [2], the “bactericidal activity (CFU decrease of 3-Log10, 3 hours after the addition of lysin)” value was “bactericidal activity”; the “CAA/HuS (Log10 CFU/mL), 1 hr” value is 5.0 Log10 CFU/mL; the “CAA/HuS (Log10 CFU/mL), 3 hr” value is reported as less than 3.7 Log10 CFU/mL. In addition, the MBEC in experiment [3] is 0.5 µg/mL.

B5: GN329: lysin, SEQ ID NO: 26 (protein)
chain: MITDREYQQAAEMLGVDVPAIKAVTKVEAPVGGFQPTGEPTILYERHQMYRQLQAKGLPTEGHPPDLVNKVAGGYGKYSEQHAKLARAVKIDRDSALESCSWGMFQIMGYHWKLMGYPTLQAFVNAMYASEGAQMDAFCRFIKAQPTTHAALKAHDWAKFARLYNGPGYAKNKYDVKLEKAYAEASG
modifications: Pseudomonas phage KPP10
As for B5, in the experiment with P. aeruginosa, the “CAA MIC” value turned out to be 4000 µg/mL and the “CAA/HuS MIC” value is 250 µg/mL. Moreover, in experiment [1], the “MIC in 25% CAA” value was 4 µg/mL. In experiment [2], the “bactericidal activity (CFU decrease of 3-Log10, 3 hours after the addition of lysin)” value was “bactericidal activity”; the “CAA/HuS (Log10 CFU/mL), 1 hr” value is reported as 4.4 Log10 CFU/mL; the “CAA/HuS (Log10 CFU/mL), 3 hr” value is given as less than 3.7 Log10 CFU/mL. In experiment [3], this molecule showed an MBEC of 0.5 µg/mL.

B6: GN333: lysin obtained from Delftia sp. (SEQ ID NO: 28) (protein, listed as Delftia sp.)
chain: MALTEQDFQSAADDLGVDVASVKAVTKVESRGSGFLLSGVPKILFERHWMFKLLKRKLGRDPEINDVCNPKAGGYLGGQAEHERLDKAVKMDRDCALQSASWGLFQIMGFHWEALGYASVQAFVNAQYASEGSQLNTFVRFIKTNPAIHKALKSKDWAEFARRYNGPDYKKNNYDVKLAEAYQSFK
Consider B6, for which, in the experiment on P. aeruginosa, the “CAA MIC” value amounted to 8000 µg/mL and the “CAA/HuS MIC” value worked out at 60 µg/mL. In addition, the “MIC in 25% CAA” value in experiment [1] was found to be 8 µg/mL. Also, in experiment [2], the “bactericidal activity (CFU decrease of 3-Log10, 3 hours after the addition of lysin)” value is on record as “bactericidal activity”; the “CAA/HuS (Log10 CFU/mL), 1 hr” value was 4.9 Log10 CFU/mL; the “CAA/HuS (Log10 CFU/mL), 3 hr” value was less than 3.7 Log10 CFU/mL. In experiment [3], this molecule came in with an MBEC of 1 µg/mL.

(Values after patent US20210324359A1, “USE OF GRAM-NEGATIVE LYSIN-ANTIMICROBIAL PEPTIDE (AMP) POLYPEPTIDE CONSTRUCTS IN TREATING ENDOCARDITIS” (priority 2020, published 2021).)
